Data from US20110008774A1 (CORNELL RESEARCH FOUNDATION, published 2011).

Biological target: AMEF β-gal (normally inactive β-galactosidase variant, AMEF 959) (E. coli)
Assay: cell-based or functional assay

B1: scFv13 variant S20 (scFv)
scFv: MADYKDDDDKGGSAEVQLVESGGGLVKPGGSLRLSCAASGFTFSNNSMNWVRQAPGKGLEWVSSISSSSSYIYYADFVKGRFTISRDNAKNSLYLQMNSLRAEDTAVYYCARSSTTIFGGGMDVWGRGTLVTVSSGGGGSGEGGSGGGGSQSVLTQPASVSGSPGQSITISCAGTSSDVGGYNYVSWYQQHPGKAPKLMIYEDSKRPSGVSNRFSGSKSGNTASLTISGLQAEDEADYYCSSYTTRSTRVFGGGTKLAVLGAAAEQKLISEGDLNGAAELHHHHHH
  AMEF β-gal activation in vivo (whole cell X-gal hydrolysis, absorbance at 620 nm): ~2 fold over wt scFv13

B2: scFv13 variant S23 (scFv)
scFv: MADYKDDDDKGGSAEVQLVESGGGLVKPGGSLRLSCAASGFTFSNYSMNWVRQAPGKGLEWISSISSSSSYIYYADFVKGRFTISRDNVKNSLYLQMNSLRAEDTAVYYCARSSITIFGGGMDVWGRGTLVTVSSGGGGSGGGGSGGGGSQSVLTQPASVSGSPGQSITISCAGTSSDVGGYNYVSWYQQHLGKAPKLMIYEGSKRSSGVSNRFSGSKSGNTASLTISGLQAEDEADYYCSSYTTRSTRVFGGGTKLAVLGAAAEQKLISEEDLNGAAELHHHHHH
  AMEF β-gal activation in vivo (whole cell X-gal hydrolysis, absorbance at 620 nm): ~2 fold over wt scFv13
